According to US20210308031:

Columns and labels:
[1] = system: (Pro-Pro-Gly)10 peptide model substrate
[2] = system: Unhydroxylated collagen purified from strain PP434 (vector MMV411)

For “AB fusion protein with the His tag (P4HA1 at the N-terminus, GSGSGS linker, P4HB at the C-terminus, six histidines), encoded by plasmid MMV502”, which “alpha-ketoglutaric acid consumption over time” value [1] is on record?
The value was “there was less a ketoglutaric acid in the sample with the AB fusion protein than the sample with native P4HA and P4HB proteins”.

What about the “% Hydroxyproline (in vitro hydroxylation, 5 uM enzyme, 2 uM collagen, 32 C, 1 hour); enzyme from strain PP547” value [2] of the same substance?
The value was 34.8%.

And the “% Hydroxyproline (in vitro hydroxylation, 5 uM enzyme, 2 uM collagen, 32 C, 1 hour); enzyme from strain PP635” value [2]?
The value was 26.6%.
